Source: patent US20230174643A1

What was measured:
[1] = molecular target: CD3 (human); assay: cell-based or functional assay
[2] = molecular target: Human DLL3 (human) (UniProt Q9NYJ7); assay: cell-based or functional assay
Chain of Human DLL3 (human) (Q9NYJ7 27-618 limits assumed): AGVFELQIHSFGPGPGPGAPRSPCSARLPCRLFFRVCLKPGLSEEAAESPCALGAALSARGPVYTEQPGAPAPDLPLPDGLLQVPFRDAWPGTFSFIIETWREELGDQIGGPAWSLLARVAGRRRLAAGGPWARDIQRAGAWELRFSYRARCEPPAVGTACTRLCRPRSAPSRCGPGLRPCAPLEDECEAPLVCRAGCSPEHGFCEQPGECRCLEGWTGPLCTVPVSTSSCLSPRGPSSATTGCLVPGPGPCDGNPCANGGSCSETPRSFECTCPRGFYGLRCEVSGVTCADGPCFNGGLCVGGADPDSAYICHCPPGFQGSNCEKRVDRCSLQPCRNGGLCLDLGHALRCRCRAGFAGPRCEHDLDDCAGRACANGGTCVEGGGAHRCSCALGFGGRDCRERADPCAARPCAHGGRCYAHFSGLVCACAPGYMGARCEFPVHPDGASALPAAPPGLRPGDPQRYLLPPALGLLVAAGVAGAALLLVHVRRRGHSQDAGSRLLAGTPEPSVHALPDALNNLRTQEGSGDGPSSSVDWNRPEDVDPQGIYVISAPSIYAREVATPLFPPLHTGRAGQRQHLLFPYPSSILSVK

AMG 757 (bispecific antibody)
EC90 of AMG 757-mediated CD69 upregulation [1]: 4.6 ng/mL
EC50 of AMG 757-mediated cell killing in SHP-77 cells [2]: 2.8 ng/mL
EC90 of AMG 757-mediated cell killing in SHP-77 cells [2]: 5.7 ng/mL
in vitro EC90 for AMG 757-mediated cell killing [2]: 5.2 ng/mL
